Common to all, as to experiment: fluorescence anisotropy
For orientation: In fluorescence polarisation assays a small probe gives low polarisation when free and higher when bound to something large.

Series [1] deals with T1, ScPif1p (237-780) (Saccharomyces cerevisiae, UniProt P07271 237-780).
T1 sequence: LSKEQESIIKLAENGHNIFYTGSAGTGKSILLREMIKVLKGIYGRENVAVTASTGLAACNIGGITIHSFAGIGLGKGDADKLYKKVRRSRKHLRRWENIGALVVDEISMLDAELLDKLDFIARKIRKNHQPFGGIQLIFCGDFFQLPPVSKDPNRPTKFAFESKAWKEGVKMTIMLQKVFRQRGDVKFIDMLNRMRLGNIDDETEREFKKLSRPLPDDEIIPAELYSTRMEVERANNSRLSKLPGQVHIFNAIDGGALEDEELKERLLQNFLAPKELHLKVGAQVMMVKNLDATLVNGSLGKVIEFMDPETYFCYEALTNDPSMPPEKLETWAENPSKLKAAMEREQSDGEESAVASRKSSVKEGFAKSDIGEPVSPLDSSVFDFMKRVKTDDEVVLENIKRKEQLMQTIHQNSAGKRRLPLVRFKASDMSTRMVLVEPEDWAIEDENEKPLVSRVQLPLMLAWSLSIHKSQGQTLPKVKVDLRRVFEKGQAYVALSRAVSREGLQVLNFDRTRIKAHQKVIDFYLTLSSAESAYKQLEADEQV

A further series deals with T2, ScPif1p K595A (Saccharomyces cerevisiae, UniProt P07271 237-780, K595A).
T2 sequence: T1 sequence with K359A

A further series addresses T3, ScPif1p D677T (Saccharomyces cerevisiae, UniProt P07271 237-780, D677T).
T3 sequence: T1 sequence with D441T

Series [2] concerns the target T1, ScPif1p (237-780). The source holds these as a separate data set.
Series [3] concerns the target T1, ScPif1p (237-780). This is another data set of the same source.

Changes are numbered by the printed parent chain. Like-named read-outs stand apart in the source and are kept apart here.

For AGGGTGGGTGGGTGGGT (structured_DNA) [F-G417], binding with ScPif1p (237-780) [1] was put at a Kd of 25 ± 5.1 nM.
GTGTGTGTGGTG (ssDNA) [GR12]: the Kd (as a rule, the concentration at which binding is half-saturated) turned out to be 10.2 ± 1.8 nM with ScPif1p K595A, 10.5 ± 2.6 nM in the series with ScPif1p D677T, 6.1 nM with ScPif1p (237-780) [2] and 7.8 nM with ScPif1p (237-780) [3].

Values taken from publication PMC5814829.
